The values that follow come from patent US20180044434A1.

Assay [1] addresses T1, Ala mutant of TA0096, SEQ ID NO: 32.
T1 sequence (peptide): EENMDAQWMQDEMEIGY
Kind of assay: ELISA, coated peptide. A general note: In an ELISA, binding on a coated surface is turned into a signal by an enzyme label.

The target of assay [2] is T2, Ala mutant having 3-amino acid substitution, SEQ ID NO: 46.
T2 sequence (peptide): EENMDDAAAQDEMEIGY
Put plainly: ELISA, coated peptide.

B1: A11 (antibody, V domains shown)
VH: AVTLDESGGGLQTPGGALSLVCKASGFDFSSYGMGWMRQAPGKGLEYVAAIRNDGSWTGYGAAVKGHATISRDNGQSTVRLQLNNLRAEDTGTYYCAKTTGSRGGSIDAWGHGTEVIVS
VL: ASTQPSSVSANLGGTVEITCSGGGRYYYGWYQQKSPGSAPVTVIYANDKRPSDIPSRFSGSKSGSTGTLTITGVQAEDEAVYFCGSAETSSYVFGAGTTLTVL
With B1, the OD 490/630 nm in assay [1] turned out to be 0.628.

B2: G8 (antibody, V domains shown)
VH: AVTLDESGGGLQTPGGALSLVCKASGFTFSTYAMGWMRQAPGKGLEYVAAIRNDGSWTGYGAAVKGRATILRDNGQSTVRLQLSNLRAEDTGTYYCAKYTGSSGGSIGAWGHGTEVIVS
VL: ASTQPSSVSANLGGTVEITCSGGNRNYYYGWYQQKSPGSAPVTLIYANDKRPSNIPSRFSGSKSGSTGTLTITGVQAEDEAVYFCGTADTGKYVFGAGTTLTVL
B2 displayed an OD 490/630 nm in assay [2] of 0.178.

B3: E9 (antibody, V domains shown)
VH: AVTLDESGGGLQTPGGTLSLVCKGSGFTFSSYGMGWMRQAPGKGLEYVAAIRNDGSWTGYGSAVKGRATISRDNGQSTVRLQLNNLRAEDTATYYCAKTSGSSGGSVDAWGHGTEVIVS
VL: ASTQPSSVSANLGGTVEITCSGGGRYYYGWYQQKSPGSAPVTVIYANDKRPSDIPSRFSGSKSGSTGTLTITGVQAEDEAVYFCGSAETSSYVFGAGTTLTVL
B3 returned an OD 490/630 nm in assay [1] of 0.177.
